Reference: paper PMC4627070

T1: gp32 (gene 32 protein, ssDNA-binding protein) (bacteriophage T4, UniProt P03695 1-301)
T1 sequence: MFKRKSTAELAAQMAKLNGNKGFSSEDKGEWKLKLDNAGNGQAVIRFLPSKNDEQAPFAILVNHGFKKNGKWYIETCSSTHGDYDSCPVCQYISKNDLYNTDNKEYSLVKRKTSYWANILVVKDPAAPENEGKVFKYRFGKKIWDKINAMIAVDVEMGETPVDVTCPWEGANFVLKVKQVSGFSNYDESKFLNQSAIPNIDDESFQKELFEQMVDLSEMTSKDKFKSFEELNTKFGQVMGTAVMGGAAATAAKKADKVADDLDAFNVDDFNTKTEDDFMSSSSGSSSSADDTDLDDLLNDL


These binders were tested against T1, gp32 (gene 32 protein, ssDNA-binding …) (assay: fluorescence titration).
AAAAAAAA (ssDNA, 2-aminopurine at positions 6,7 (written as A)) [8A6,7] gave a Kd of 3.2 ± 0.3 µM.
With AAAAAAAA (ssDNA, 2-aminopurine at positions 2,3 (written as A)) [8A2,3] the Kd was 4.1 ± 0.4 µM.
TTTAATTT (ssDNA, 2-aminopurine at positions 4,5 (written as A)) [8P4,5] gave a Kd of 4.2 ± 0.4 µM.
Work on TTTTTAAT (ssDNA, 2-aminopurine at positions 6,7 (written as A)) [8P6,7] yielded a Kd of 10.3 ± 1 µM.
TAATTTTT (ssDNA, 2-aminopurine at positions 2,3 (written as A)) [8P2,3] showed a Kd of 3.5 ± 0.4 µM.
